This is an account of results in US20210252159A1, “CONJUGATES OF CARTILAGE-HOMING PEPTIDES” (priority 2018, published 2021).

Like-named read-outs stand apart in the source and are kept apart here. Positions of bridges follow the written chain, without caps; N, C: chain ends. Residues, ends and D or L forms follow the SMILES beside them. *: point of attachment. X2 = CC(CCC(C)C(=O)*)C(=O)OCC(=O)[C@@]12O[C@H](C3CCCCC3)O[C@@H]1C[C@H]1[C@@H]3CCC4=CC(=O)C=C[C@]4(C)[C@H]3[C@@H](O)C[C@@]12C

Data set [1] can be described thus: Hydrolysis assay of peptide-drug conjugates in rat plasma (free drug by LC/MS). Conditions: rat plasma, 37° C., read-out: half-life (in vitro hydrolysis, free dCIC) (converted). The format is in vitro ADME. Here is the method: Peptide-drug conjugate peptide(SEQ ID NO: 105)-DMA-dCIC was incubated in rat plasma at 37° C. Samples were removed at regular intervals, processed by solvent extraction, and analyzed by LC/MS to quantitate free dCIC. 11 time-points were measured between 5 min and 56 hours with 3 replicates per time point. The assay was repeated two times.
In order to determine hydrolysis rates, conjugates can be diluted in PBS, rat plasma, or human plasma and incubated at 37 degrees. Samples can be taken at designated time-points (e.g., 1, 2, 3, 5, 10, 15, 20, 25, 30, 45, 60, or 90 minutes and/or hours after administration). Internal standards such as triamcinolone acetonide (TAA) can be added as an internal standard, and then active agent/TAA can be extracted using acetonitrile, for example. The samples can be dried down, reconstituted, and analyzed by LC/MS. Data can be normalized using Dex AUC/TAA AUC. Percent hydrolysis can be calculated using the average ratio for active agent AUC/TAA AUC at a time point of maximal drug release. A general method can include using a lyophilized, purified peptide-drug conjugates reconstituted in DMSO following production to generate stock solution at 20 mg/mL. Each conjugate stock can be brought to 0.25 mg/mL in each hydrolysis condition (1×DPBS, human plasma and rat plasma) in triplicate and rocked at 37° C. To quantitate free active agent, 100 μl of the hydrolyzed conjugate solution can be transferred into 1 mL acetonitrile at 4° C. at which time all plasma proteins and intact conjugates can precipitate. This can be performed repeatedly to generate a series of time points (0 hr, 0.5 hr, 1 hr, 2 hr, 4 hr, 6 hr, 8 hr, 24 hr, 32 hr). The acetonitrile solution can be spun at 17,000 g for 5 minutes, and the supernatant removed and added to a 96 well block. The pellet can then be resuspended in 500 μl acetonitrile and re-pelleted as before. The supernatant can be removed and added to the same well in the block. Samples can be prepared for analysis by drying under a nitrogen stream followed by reconstitution in 110 μl 45:55 ACN:Citrate 10 mM pH 5.5. To ensure optimal recovery the block can be shaken via plate shaker at 7,000 rpm for 5 minutes during the reconstitution step. Prior to LC/MS the samples can be transferred to a 96 well plate and centrifuged at 6,500 g for 15 minutes. Analysis can be performed on an Agilent 1260 Infinity series HPLC with inline 6120 single quad MS using acetonitrile, water (+0.1% TFA) gradient (shown below) on an InfinityLab Poroshell SB-C18 column. Quantification of free active agent (or drug) can be achieved through integration of active agent peaks of the TIC.
Lyophilized, purified peptide-drug conjugates were reconstituted in DMSO following production to generate stock solution at 20 mg/mL. Each conjugate stock was brought to 0.25 mg/mL in each hydrolysis condition (1×DPBS, human plasma and rat plasma) in triplicate and rocked at 37° C.
To quantitate free dexamethasone (Dex), 100 μl of the hydrolyzed conjugate solution was transferred into 1 mL acetonitrile at 4° C. at which time all plasma proteins and intact conjugates precipitated. This was performed repeatedly to generate a series of time points (0 hr, 0.5 hr, 1 hr, 2 hr, 4 hr, 6 hr, 8 hr, 24 hr, 32 hr). The corticosteroid triamcinolone acetonide (25 μl, 0.1 mg/mL in 45:55 ACN:Citrate 10 mM pH 5.5) was supplemented into the acetonitrile solution as an internal standard. The acetonitrile solution was spun at 17,000 g for 5 minutes, and the supernatant removed and added to a 96 well block. The pellet was resuspended in 500 μl acetonitrile and re-pelleted as before. The supernatant was removed and added to the same well in the block.
Samples were prepared for analysis by drying under a nitrogen stream followed by reconstitution in 110 μl 45:55 ACN:Citrate 10 mM pH 5.5. To ensure optimal recovery the block was shaken via plate shaker at 7,000 rpm for 5 minutes during the reconstitution step. […]

Data set [2] can be described thus: Solubility for formulation. Conditions: aqueous formulation for systemic delivery. It is filed as physicochemical. The text has this: This study was designed to test whether dCIC delivered by a peptide would enable local suppression of inflammation in the joint while reducing systemic exposure to dCIC compared to that obtained when dosing therapeutic levels of dCIC alone. To enable systemic delivery of dCIC (unconjugated), it was formulated in 40% propylene glycol and then heated in order to solubilize the molecule. […] The peptide-drug conjugates of the disclosure can have a water solubility that allows conjugates to be formulated for systemic delivery, wherein at least some of the drugs used in the peptide-drug conjugates may not have sufficient water solubility for systemic administration when not conjugated to peptide. The conjugates comprising those drugs can home, target, migrate to, accumulate in, bind to, be retained by, or be redirected to a cartilage of a subject.

Data set [3] can be described thus: IL-1β challenge rat model, dose-ranging study: CBC, organ weights, tolerability. The format is in vivo, rats. Here is the method:
IL-6 was measured in knee lavage fluid using a Luminex assay and levels were normalized to total protein in the lavage fluid (FIG. 24). Assessment of the PD inflammatory marker IL-6 in the knee joints of rats challenged with IL-1β was performed. Terminal synovial fluid was collected from all animals and analyzed by Luminex 200 for IL-6 cytokine concentrations using EMD Milliplex MAP Rat Cytokine/Chemokine Magnetic Panel ([…]-65K). […] Doses are listed as nmol/kg The masses of these doses are given below in TABLE 16. Two hours and forty-five minutes (i.e., 2.75 hrs) after administration of the test agents, animals were gently heated and blood was drawn from the tail vein for CBC analysis. Animals were then anesthetized with inhaled isoflurane and injected with 30 ng of IL-1β into the right knee (except for no IL-1β group). Four hours after administration of IL-1β (seven hours after administration of test agent) the animals were euthanized. Blood was drawn for a second CBC analysis and the right knee was lavaged for detection of IL-6 in the lavage fluid using a Luminex assay. Thymus and spleen were harvested and their organ weights determined.
In the same animals for which IL-6 secretion was measured, CBC data (e.g., lymphocyte counts) were also analyzed (FIG. 25) at an early time-point, 2.75 hrs post administration of the test article (FIG. 25A), and at euthanasia 7 hrs post administration (FIG. 25B). All treatments were administered as described above for the measurement of IL-6 secretion.
All treatments and test articles were administered as described above, except for an additional treatment group that received 510 nmol/kg of the peptide-drug conjugate peptide(SEQ ID NO: 105)-DMA-dCIC.

Another data set has as its system IL-6. It is filed as in vivo, rats. The settings on record: Dex 1274 and 127 nmol/kg IV; dCIC 1274 nmol/kg IA or 127 nmol/kg IV; conjugate 127, 51 and 13 nmol/kg IV; four hours after IL-1β.
The nature of data set [4]: IL-1β challenge rat model, follow-up study: WBC, lymphocyte and monocyte counts. The format is in vivo, rats. Conditions: 2.75 hours; peptide 127, conjugate 51 and 13 nmol/kg IV; dCIC 1274 IA, 127 and 51 IV. How it is done: This study was conducted in an identical manner to the dose-ranging study described further above in this EXAMPLE with regard to timing of test agent administration, collection of blood for CBC, injection of IL-1β, and lavage of the knee following euthanasia. In this study, the blood collected at euthanasia was submitted for both CBC and serum chemistry, and thymus and spleen weights were not measured because there was no evidence of treatment effect for dCIC and peptide-dCIC on these organs in the dose-ranging study. Assessment of biomarkers of steroid exposure in blood of rats as part of a PD study as shown in FIG. 27: # denotes dose administered by IA injection, all other treatments were administered IV. The treatment groups included the following test articles: (i) no IL-1β negative control (denoted “No IL-1b”); (ii); vehicle only control for the peptide-drug conjugate (denoted as “vehicle”), which was (5% DMSO in PBS); (iii) the peptide-only control peptide(SEQ ID NO: 105) at 127 nmol/kg (denoted over “Peptide” as “127”); (iv) 3 dose levels of dCIC, 1274 nmol/kg IA, 127 nmol/kg IV, 51 nmol/kg IV (denoted over “dCIC” as “1274 #”, “127” and “51” respectively); (v) and 2 dose levels of peptide(SEQ ID NO: 105)-DMA-dCIC (51 nmol/kg, 13 nmol/kg) (denoted over “Peptide(SEQ ID NO: 105)-DMA-dCIC” as “51” and “13” respectively), each of (i)-(v) with n=10 animals per dose group, except for no Il-1β control and peptide-only control arms which had n=6 animals per dose group. Doses are listed as nmol/kg. Statistical analysis was conducted using Wilcoxon rank-sum test with correction for multiple comparisons using Holm's method.

Method for IL-6: In this example, an IL-1β Challenge rat model was used for the evaluation of peptides-drug conjugates. In this model, IL-1β is injected intra-articularly (i.e., IA) into a single knee joint to induce an inflammatory state that can be quantified by measuring IL-6 levels in joint lavage fluid (EXAMPLE 30). The primary goal of using this model was to induce a localized inflammatory state in the joint, as opposed to the systemic inflammation induced in other models, as a way to differentiate localized delivery of dCIC to the joint from systemic administration of the steroid. […] CBC counts were used to assess any reductions in various white blood cell levels, which are established markers of systemic exposure to glucocorticoids. […]
IL-6 was measured in knee lavage fluid using a Luminex assay and levels were normalized to total protein in the lavage fluid (FIG. 24). […] Terminal synovial fluid was collected from all animals and analyzed by Luminex 200 for IL-6 cytokine concentrations using EMD Milliplex MAP Rat Cytokine/Chemokine Magnetic Panel ([sequence]-65K). […] Thymus and spleen were harvested and their organ weights determined.

In the case of `CC[C@H](C)[C@@H]1NC(=O)[C@@H]2CSSC[C@H](NC(=O)[C@H](CCCNC(=N)N)NC(=O)[C@@H](NC(=O)[C@H](CC(N)=O)NC(=O)[C@@H](NC(=O)[C@@H]3CCCN3C(=O)[C@@H](NC(=O)CNC(=O)[C@H](CO)NC(=O)CNC(=O)C(C)CCC(C)C(=O)OCC(=O)[C@@]34O[C@H](C5CCCCC5)O[C@@H]3C[C@H]3[C@@H]5CCC6=CC(=O)C=C[C@]6(C)[C@H]5[C@@H](O)C[C@@]34C)C(C)C)[C@@H](C)CC)C(C)C)C(=O)N[C@@H](CCCNC(=N)N)C(=O)NCC(=O)N[C@@H](CO)C(=O)N[C@@H](CCCNC(=N)N)C(=O)N[C@@H](CC(=O)O)C(=O)N[C@H]3CSSC[C@H](NC(=O)[C@H](CCCNC(=N)N)NC(=O)[C@H](CO)NC(=O)[C@H](CC(N)=O)NC1=O)C(=O)N[C@@H](Cc1c[nH]cn1)C(=O)N[C@H](C(=O)N[C@H](C(=O)N1CCC[C@H]1C(=O)O)[C@@H](C)O)CSSC[C@H](NC(=O)[C@@H]1CCCN1C(=O)[C@H](CC(=O)O)NC(=O)[C@H](CC(C)C)NC3=O)C(=O)N[C@@H](CCCNC(=N)N)C(=O)N[C@@H](CCCNC(=N)N)C(=O)N[C@@H](C)C(=O)NCC(=O)N[C@@H](CCSC)C(=O)N[C@@H](CCCNC(=N)N)C(=O)N[C@@H](Cc1ccccc1)C(=O)NCC(=O)N[C@@H](CCCNC(=N)N)C(=O)N2` (some centres unmarked) [Compound 46, peptide(SEQ ID NO: 105)-DMA-dCIC] (X2-GSGVPINVRCRGSRDCLDPCRRAGMRFGRCINSRCHCTP-OH; disulfide 10-30, 16-35, 20-37 (inferred); C-terminus assumed), the half-life at 0.25 mg/mL in data set [1] (first assay, acetonitrile extraction of dCIC) was 8.5 h; in data set [1] (second assay, ethyl acetate extraction of dCIC), 5 h. For the same molecule, the solubility entry in data set [2] was “soluble in PBS”. Further, in data set [3] (2.75 hours post-treatment), the “monocytes (CBC)” value is recorded as “dose-dependent increase”. For the same molecule, the “neutrophils (CBC)” value in data set [3] (2.75 hours post-treatment, higher doses) is “dose-dependent increase”. Besides, in data set [3] (2.75 hrs post administration, equimolar dose of 127 nmol/kg), the “effect on lymphocyte counts as compared to Dex and dCIC alone” value is reported as “less effect on lymphocyte counts”. For the same molecule, the “spleen and thymus weights at euthanasia” value in data set [3] (7 hours post administration) is “minimal effect on the weight of both organs”. For the same molecule, the mortality result in data set [3] (highest dose group (1274 nmol/kg IV)) was “died within 30 minutes of dosing”; in data set [3] (second highest dose group (510 nmol/kg), within 30-90 minutes of dosing), “three out of five animals”. The “CBC counts and all observations” value in data set [3] (lower effective doses (13-51 nmol/kg)) is given as “normal”. For the same molecule, in the data set on IL-6, the “IL-6 concentration in knee lavage fluid normalized to total protein, compared to vehicle” value is given as “clear reduction in IL-6 concentration”.
With `C[C@]12C=CC(=O)C=C1CC[C@@H]1[C@@H]2[C@@H](O)C[C@@]2(C)[C@H]1C[C@H]1O[C@@H](C3CCCCC3)O[C@]12C(=O)CO` [dCIC, des-ciclesonide], in data set [4], the “Total WBC counts” value is reported as “substantial reduction”, the lymphocyte counts entry is “substantial reduction” and the monocyte counts entry was “substantial reduction”. Besides, the solubility entry in data set [2] is “not soluble in water”. Moreover, in data set [3] (2.75 hours post-treatment), the “monocytes (CBC)” value is listed as “dose dependent decrease”. In addition, the “Lymphocyte counts as compared to vehicle control” value in data set [3] (2.75 hrs post administration, Dex both doses, dCIC IA or IV) is recorded as “reduction in lymphocyte counts”. Moreover, the “spleen and thymus weights at euthanasia” value in data set [3] (7 hours post administration) is listed as “minimal effect on the weight of both organs”. In addition, the “Lymphocyte counts at euthanasia” value in data set [3] (7 hours post administration, all dose levels) is reported as “either stable or starting to recover”. The “IL-6 concentration in knee lavage fluid normalized to total protein, compared to vehicle” value in the data set with IL-6 is listed as “decrease in IL-6 concentrations”.

As usually defined, the half-life is how long it takes for the measured level to halve.
